# Source: the DeepSol protein solubility set
# Assay: soluble on expression in E. coli; label from the status in PepcDB or PDB records
row,Sequence,soluble on expression in E. coli
1,MESYLRLSEVDKQILHSHALMLDGLGNFFGSTHEVILHSLENLESSAIKVINGHFSNRKEGAPITDMALKMLSQVESEHDYAVKPYYNKNQKGVILKSSTIPVIGENDRIIGLICINMHLEMPLIDYLQDLLPSGQQNDMSQELKNSEHFSDNIDELITTSLTKVKQAVESDPNVSHLNQNKEIVIRLYDQGIFNLKDSVIKIADRLGISKNTIYLHIRNHKKEEA,not soluble
2,MSLRTKSWTDDLKVCNQTGVGEAINQIYKDDGRRCEGYESRDKKCLCISDNNTSLYAILSGHNGVTVAENALQEMAAELLLGQLNVCNTDEAVKELIRQSFMSVEKGYFDSINPHVATKTAIQLHLSADGMNQYEISQQFENVLQKLDSLNNALSVGSSAVLALIHRSHLYLGNIGNCRALLCKTDEHDTLTVTQLSVDHNLLNAEEAARLFRLGLMAQNFEGVPLYSTRCIGNYLGKAGYKDCNFLSSATAEPVIFEPEIVGGIQITPACRFLVLMSSGLCRALHEIFPGDASTGNRELVRMISEEFQNQSTLGGVAQSVVHRIVQAHHDTYMQLVEEHRSVTFNSRDDVTLLIRNFNYAEGHHHHHH,soluble
3,MGTKIIGTGVYLPKNVLTNFDLEKIVDTSDEWITTRTGIKERRIAKEETITYMATQAAKEALREANLSPEELDLIILATLTPQKRFPSTACLVQAQLKAKGVYAFDISAACSGFIYALDIADSFIKSGKAKNVLVIGAEKLSEAVDWEDRSTCVLFGDGAGAVVVTRSEDKSDILATRMYAEGSLEELLHADNCGYIRMKGRELFKVAVRSMEEVCREVLEKAGVKPEEVSLVIPHQANVRIINALAEKLNIPKEKVFVNIQKYGNTSAASIPIALHEAIKEGKVKRGDLILMTAMGGGLTWGAVLLRY,soluble
4,MPESTNFTEEITQWVESLPNWGKAAVAGGVALAVYIPYKFMATRPRKSPLNENWKPDVVYLYQFPRARLLPNLSPFCMKVETWLRMSDITYEIPPCSLSTRSQEGTLPFVELNGKEYYDSSFILRDIDQVIKHTSLDDHLSAEQKATSRAFEAMSEKSLAISACYYRMENVEKMLDQFDPKLFGIFGFLFKLIGSRTYVSALLRRITGSDIGFHSREDIINIGSEDLKAISKYLGNKHYFHGFKPTKVDACIFSHLCQIYYAPYTSEHRDLIDGECKNLAEYVERIKNRFYPDWDDVTTKFSTDTSNWKKRHVARNGNGKH,not soluble
5,SPSYTVLGQLPDTDVYIDIDAYEEVKEIPGIKIFQINAPIYYANSDLYSSALKRKTGVNGSENIHTVILDFTQVNFMDSVGVKTLAGIVKEYGDVGIYVYLAGCSAQVVNDLTSNRFFENPALKELLFHSIHDAVLGSQVREA,soluble
6,MGSDKIHHHHHHMAATSDYDVIVVGGGHNGLTCAGYLARAGKRVLVLERRPIVGGAVCTEEVIPGYKIDVGSSAHIMIHLTPIVRDLELERHGLEYIDMDPYAFYPLPDGSGAIYFYRDVERTCQSIATVSPRDAEAYRRFLDFWTPLNEAVFDVFLNPPSVTRLFGKVASSIPRLPKAEQKVLEVTRRLFTSYAQLIEETFESEAMRAAMTWLAAQSGPPPDEIGAGDFFGWHAMLHYSGAKHPRGGSGMLTQAMARSLKAMGGEVILDAPVRRILVQNGRVQAWKRQTVSAIRPRLLFPTLTC,not soluble
7,AKKIGIEQSLSDVEAALKEKGYDVVMMKSPADAQGCDCCVVTGLDNNVQGIADTVTQAPVITASGMTAEEICSEVESRIQ,not soluble
8,SRKMSLMRKEKLRGKAIKYVPASLLTKEFYSEAFTLNVDVIENIPKEFITAKMCEEAIQKNRHNIAYIPFEYRTEKIITEAIKNNGLALSEIDDTQKTEQLCLLAIRNHGGALQYVPYQLRTPEICLEAVKNFNGALNYVPEHIRTADFHTEYLIEDDWIDELLAGYDERLLKAVRKDARNLAAIPEEQRTYELCVEALLNNNDSDSVLKYVPDEFKTPEFYRNCVRINNKHFKDIPDSMKSYELCFEAVTNSPYALEYVPQRLLTKEIILAALSQKSMAVLDYVPPEFMTEEVYTTAFKNDIFGDIAYIFPEEYRTKENYLAMLGNPYSVCSTIIKTMPDYLKTDDFLVAAAKLRDEMLEYVPEYLLTQELCYELVKANGYALRITPPQFITEALCRTAVESDPRALCYVPEEFRTHEICDLALQKDMGLIKYAPADFAITADLCRRAVEADADAINQIPEQFRTEELWRIAVSEYGRLLEDLPASLMSEEFCRLAVANDGRALEFVPDKNKTKDVCFEAVRNSGHALKFVDVSKLTKEEYSKLCRLAFER,not soluble
